# From paper PMC2367452, “HOXA13 Is Essential for Placental Vascular Patterning and Labyrinth Endothelial Specification”
# Columns and labels:
# [1] = target: T1, HOXA13 DNA-binding domain peptide (A13-DBD) (UniProt Q62424 320-386); experiment: fluorescence anisotropy; legend says affinity ablated; titrated only to 200 nM; FP: 1 nM fluorescein-labeled hairpin, 0-200 nM HOXA13-DBD, 15 C, buffer per ref 71 (not given); EMSA: Promega Gel Shift Binding System; settings: protein: recombinant, label: fluorescein, 14 bp stem, CCCCC loop
# [2] = target: T1, HOXA13 DNA-binding domain peptide …; experiment: fluorescence anisotropy; abstract gives range 27-42 nM; FP: 1 nM fluorescein-labeled hairpin, 0-200 nM HOXA13-DBD, 15 C, buffer per ref 71 (not given); EMSA: Promega Gel Shift Binding System; settings: protein: recombinant, label: fluorescein, CCCCCCC-region loop
# T1 sequence (Q62424 320-386): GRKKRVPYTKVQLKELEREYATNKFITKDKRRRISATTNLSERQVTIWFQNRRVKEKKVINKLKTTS
Binder,Kd [1],Kd [2]
TGACTGACTGACTGCCCCCCAGTCAGTCAGTCA (structured_DNA) [TGAC control hairpin],250 ± 22 nM,
CTTATTATTAAAGGCCCCCCCTTTAATAATAAG (structured_DNA) [Foxf1 hairpin],,48 ± 4 nM
